# Measured values published in the supplement of paper PMC9170038.
# System: MS2 coat protein
# Test: apparent KD of MS2 coat protein; designed switch direction (-1 OFF switch, 1 ON switch): -1; higher = weaker reporter binding
# In short: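 For each design, the apparent KD is the median over clusters of curves fitted to normalised cluster fluorescence. Clusters held RNA switches with common flanks, transcribed on Illumina chips by stalled E. coli RNA polymerase. These were titrated with SNAP-549-labelled MS2 coat protein, doubling from 0.7 or 1.5 nM to 3 µM, without input, with 200 uM small-molecule ligand, or with an oligonucleotide input.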
# [1] = input ligand: microRNA oligo, concentration not stated
# [2] = Eterna round: R95, input ligand: microRNA oligo, concentration not stated
# [3] = Eterna round: R95, input ligand: FMN 200 uM
# [4] = Eterna round: R95, input ligand: none
Sequence,apparent KD of MS2 coat protein (input ligand: FMN 200 uM) [µM],apparent KD of MS2 coat protein (input ligand: none) [µM],other results
"UUCCGCCUAGGAUAUUGGAUACUCUACAUGAGGAUCACCCAUGUGAGCAUGAAAGAUAUCCAAGAAGGAGGUAGCC [Eternabot (L2) Solution 68] (Eterna round: R97, puzzle: Exclusion 5)",0.0167,0.0146,
"UUGUUUUUCACAGGAUAUCGCCUCUUAUUACAUGAGGAUCACCCAUGUUUAUUUUGUUACAUGUUCGAGAAGGGUGUAGUCUUU [JR_ExcNG2_Sub047] (Eterna round: R96, puzzle: Exclusion NG 2)",0.586,0.475,apparent KD of MS2 coat protein [1]: 0.368 µM
"CAGUACUGAGGAUAUACAUGAGGAUCACCCAUGUGUUCCAGCUAGGAAACUAGCGAAUGUAGAAGGCAGUACUG [jl-ex3-4.22 salish99 mod] (Eterna round: R97, puzzle: Exclusion 3)",0.451,0.355,
"ACCAGAAUAGGAUAUAACGAAAAGGACAUGAGGAUCACCCAUGUGACUACUAUUCCCUUGUUAGAAGGAUUGCGGG [Eternabot (L2) Solution 48] (Eterna round: R97, puzzle: Exclusion 5)",0.032,0.0249,
UUCCUCGUUGUGAGGAUAUCGUCCGUGUUUUGUUACGAGAAGGCACAUGAGGAUCACCCAUGUUUUUUGUUUUU [JR_BMOE4_Sub075] (puzzle: Brourd's mod of Exclusion 4),,,apparent KD of MS2 coat protein [2]: 0.04 µM
"GGCGCACAUGAGGAUCACCCAUGUGAGGAUAUUAGGCGAUCGUCGAUAGACGAUAGCCUGAGAAGGCACAUGCC [Mat - Exclusion 1 - Eli Mod - D18] (Eterna round: R97, puzzle: Exclusion 1)",0.188,0.0293,
"AUGUGCACGCUGCGAUCCUACAUGAGGAUCACCCAUGUGGUCUGGUGGCGUGGGUCACCGGACUUGGCUCGUCUUGC [salish99_S_TOV1_R5_074] (Eterna round: R97, puzzle: Sensor, turn-off variant 1)",0.0281,0.0276,
"CGCAUACAUGAGGAUCACCCAUGUGAGGAUAUCAUGCUUCGUAGUAAACUACGAAGUGUGAGAAGGCACAUGCG [Omei Ex1 D2] (Eterna round: R97, puzzle: Exclusion 1)",0.112,0.0626,
"UCUUUACAUGAGGAUCACCCAUGUGAGGAUAUGGUUUCGCUGGCCGUAGCCAGUGGAACCAGAAGGCGCAUGAU [Mat - Exclusion 1 - JL Mod - D9] (Eterna round: R97, puzzle: Exclusion 1)",0.0514,0.0279,
CCGCAAAAGCAGGAUAUCGUAUCGGAUACGAUACGAGAAGGGCUAACAUGAGGAUCACCCAUGUGUCCUAGCGG [Fiskers Ex 6 - 38] (puzzle: Exclusion 6),,,apparent KD of MS2 coat protein [2]: 0.0154 µM
CAUGUGUAAGGAUAUGACAAUGGUAUCUUCGGAUACCAUUGUCAGAAGGUACAUGAGGAUCACCCAUGUAGAUC [Ex4-3: 16] (puzzle: Exclusion 4),,,apparent KD of MS2 coat protein [2]: 0.0486 µM
AUUCCCGGUGUUAGGAUAUCCAACGCCCACGCGAUGGAGAAGGGACAUGAGGAUCACCCAUGUAGAGCUGCAUC [Aredan] (puzzle: Brourd's mod of Exclusion 4),,,apparent KD of MS2 coat protein [2]: 0.0117 µM
"UUUUUCUUUGUAGGAUAUCGUUUUUUUUUUUUUCGAGAAGGACAUGAGGAUCACCCAUGUUUCAAAAUUUUUUUUUUUUUUUUU [First try] (Eterna round: R96, puzzle: Exclusion NG 1)",0.0251,0.0178,apparent KD of MS2 coat protein [1]: 0.0133 µM
"GUCGUGCGGCUUUGCUGUACGAGUACAUGAGGAUCACCCAUGUAGGAUAUGGUUCGCUUUGCGUGCCAGAAGGGCGUGCGUUGU [Excl-NG3-LRO13] (Eterna round: R96, puzzle: Exclusion NG 3)",,,apparent KD of MS2 coat protein [1]: 0.0189 µM
"UAAAUGUCAGGAUAUUGUUAAUUUAGUUGUUUGUAUUAGUUCGAGAAGGGACAUGAGGAUCACCCAUGUUAAAA [Ex4 #52] (Eterna round: R97, puzzle: Exclusion 4)",0.0376,0.031,
AAAAGGCUAGGAUAUACCAGUGGGUGUAAGAACUCAAAGUUACAUGAGGAUCACCCAUGUAGAAGGAGUAAAAU [Diriti] (puzzle: Exclusion 2),,,apparent KD of MS2 coat protein [2]: 0.0162 µM
"GCCAACGACUGAGGAUAUGCUUAUAGACAUGAGGAUCACCCAUGUAAAUGGGACAUGUCAAACCAGCAGAAGGCAGGACCUGGC [Inteinrais] (Eterna round: R96, puzzle: Exclusion NG 2)",0.1,0.0703,apparent KD of MS2 coat protein [1]: 0.0575 µM
"AUCAGCUCGUCAGGAUAUACAUGAGGAUCACCCAUGUGGUCAAUAGCAGCUUCGGCUGCAUACAUGUAGAAGGGACGAGCUGAU [ENG2/7-B2] (Eterna round: R96, puzzle: Exclusion NG 2)",0.0284,0.101,apparent KD of MS2 coat protein [1]: 0.894 µM

Sequence,apparent KD of MS2 coat protein (input ligand: FMN 200 uM) [µM],apparent KD of MS2 coat protein (input ligand: none) [µM],other results
"GUUGUUUAUGUAGGAUAUGCCUGGCGUGCCUUUGCAGAAGGACAUGAGGAUCACCCAUGUAACAUGAGGCUCACCCAUGUCGCA [salish99_ExNG1_r04_109] (Eterna round: R96, puzzle: Exclusion NG 1)",0.758,0.599,apparent KD of MS2 coat protein [1]: 0.244 µM
"AUGGGUCCUUUCGGAGCGACAUGAGGAUCACCCAUGUGUGUUGAGGAUAUCCACUGCUAAGGACGGGAGAAGGCAGUGUACUGU [Ex NG3 #84] (Eterna round: R96, puzzle: Exclusion NG 3)",0.0362,0.0494,apparent KD of MS2 coat protein [1]: 0.0267 µM
"UCAUGAUGAUAGGAUAUCGCGCGGUGAAAUGCGCGAGAAGGAUUAACAUGAGGAUCACCCAUGUUGGUCUGUUA [Eternabot (L2) Solution 69] (Eterna round: R97, puzzle: Exclusion 6)",0.0279,0.0153,
"AACAGUCUAGAGGAUAUGCUGGAUUAAUAUCUUGCAGAAGGCUGGACAUGAGGAUCACCCAUGUAAAUACUACC [Omei Ex6 A12] (Eterna round: R97, puzzle: Exclusion 6)",0.094,0.0319,
AGGAAGCAAGGAUAUACGAGGAGAAGGUGUCGAUUUAAAGGACAUGAGGAUCACCCAUGUAGAAGGUGCGAGAA [JR_Exclu2_Sub048] (puzzle: Exclusion 2),,,apparent KD of MS2 coat protein [3]: 0.11 µM; apparent KD of MS2 coat protein [2]: 0.0836 µM; apparent KD of MS2 coat protein [4]: 0.0958 µM
"UUGAGCAGACGGAGAUCCAACAUGAGGAUCACCCAUGUCUCAUAAGCUUUUUGUUCAUCUUAUUGUACCUUGGUGCA [Mat - Sensor v3 - turn-off var 1 - JL Mod - D24] (puzzle: Sensor v3, turn-off variant 1)",,,apparent KD of MS2 coat protein [3]: 0.0713 µM; apparent KD of MS2 coat protein [2]: 0.017 µM; apparent KD of MS2 coat protein [4]: 0.0641 µM
"CGCAAACAUGAGGAUCACCCAUGUGAGGAUAUCAUGCUUCGUAGUAAACUACGAAGUGUGAGAAGGCACGUGCG [Omei Ex1 D4] (Eterna round: R97, puzzle: Exclusion 1)",0.0429,0.0299,
"UGCAGACGAGGAUAUAAACGAUAUAACAUGAGGAUCACCCAUGUACGAUCGAUAGAUCGUUUAGAAGGCGUCUGCA [E5/9-A2] (Eterna round: R97, puzzle: Exclusion 5)",0.0128,0.0145,
GUUAAACAUGAGGAUCACCCAUGUAAGGAUAUGCUGAGGUCGCGCUGACGUGACUGAAGCAGAAGGUACAAAUG [Mat - Mod of JL D62] (puzzle: Exclusion 1),,,apparent KD of MS2 coat protein [3]: 0.0854 µM; apparent KD of MS2 coat protein [2]: 0.0487 µM; apparent KD of MS2 coat protein [4]: 0.0739 µM
"UGCAGACGAGGAUAUAGAUUUAGAUACAUGAGGAUCACCCAUGUAUAGAUGUAUUUAGAUUUAGAAGGCGUCUGCA [E5/13-A1] (Eterna round: R97, puzzle: Exclusion 5)",0.401,0.305,
"GUCCUUAACGAGGAUAUCGGGCGGGUUUUUGUUUGAGAAGGCGUGACAUGAGGAUCACCCAUGUGGCGCGUGGG [-24.6, -21.7 kcal, A 19%] (Eterna round: R97, puzzle: Exclusion 6)",0.0367,0.0297,
"UUUUAGUAAGGAUAUGAUUAGAUCUACUUCGGUAGAUCUAAUCAGAAGGUACAUGAGGAUCACCCAUGUAGAUU [Mod of Brourd 2 - Jieux - Exclusion 4] (Eterna round: R97, puzzle: Exclusion 4)",0.0241,0.0188,
"AUUUUGUGAGGAUAUUAGUAGUAAAUAAAUAAAAUUAUUACUGAGAAGGCACAUGAGGAUCACCCAUGUUCCUA [Salish 062 v7] (Eterna round: R97, puzzle: Exclusion 4)",0.193,0.019,
"CGUCCACAUGAGGAUCACCCAUGUGAGGAUAUCUAGCACGCAGUAGUACUGUGACAUCGGAGAAGGCGUAGGGU [Eternabot (L2) Solution 96] (Eterna round: R97, puzzle: Exclusion 1)",0.0322,0.0212,
"UUUGUAUAUGAAGGAUAUACUUAACAUGAGGAUCACCCAUGUGGUGUUGUGAGUGAGUGAGUUUAGUAGAAGGUCAAGUAUUUU [JMF's solution 50] (Eterna round: R96, puzzle: Exclusion NG 2)",0.403,0.367,apparent KD of MS2 coat protein [1]: 0.298 µM
"AGCUGUGGCCGAGGAUAUCUAUCCAAUAAAACCGAAAUAUAAUCGGACAUGAGGAUCACCCAUGUAGAGAAGGCGGUCUCAGCA [Eli eng2 - 094] (Eterna round: R96, puzzle: Exclusion NG 2)",,,apparent KD of MS2 coat protein [1]: 0.0164 µM
CCCGUGUUAGGAUAUACGGCACACCCACAAACGGGUAUAUAGUAGAAGGAACAUGAGGAUCACCCAUGUAAAAC [Qubexeer] (puzzle: Exclusion 4),,,apparent KD of MS2 coat protein [2]: 0.0185 µM
